What was measured:
Format in all cases: physicochemical
[1] = Gelation of peptide solutions after saline buffer treatment, time sweep test; details: saline buffer (0.15 M of NaCl), no pH change; IEIK13 1.5%, KLD12 1.5%, PuraMatrix 2.5%
Protocol: The effect of salt ionic strength level surrounding peptides in solution on the properties of peptide solutions was evaluated to identify the possibility of peptide gelation when the peptide solution is placed into the environment where salt ionic strength level is high. […] Without pH effect, the effect of saline treatment on gelation of peptide solutions were evaluated. […] This is because IEIK13 (SEQ ID NO:2) is much more sensitive to salt ionic strength levels. Fast gelation of IEIK13 (SEQ ID NO:2) at the salt ionic strength level similar to body fluid isotonic salt level may generally improve its function and gelation speed for various clinical applications. The results are shown in FIG. 19 for IEIK13 (SEQ ID NO:2), KLD12 (SEQ ID NO:3) and PuraMatrix® (SEQ ID NO:1) solutions. Time sweep tests were performed at 1 rad/sec and at 1 Pa with 20 mm plates and 500 μm gap distance. […]

[2] = Appearance of 1.5% peptide solutions with various salts at room temperature; details: for Appearance: room temperature
Protocol: The effect of salt ionic strength level on the properties of peptide solutions was evaluated to identify optimized salt ionic strength levels for the peptides as described herein. Increasing the salt ionic strength level of PuraMatrix® (SEQ ID NO:1) and other peptides may generally improve its function and mechanical strength for various clinical applications. To adjust the salt ionic strength of the peptide solutions by way of example, various salt buffer solutions including NaCl, KCl, MgCl2, CaCl2 and DPBS (10×) were added to 2 mL of 1.5% peptide solutions.

[3] = Rheological properties of pH adjusted peptide solutions; details: pH adjusted vs not adjusted; KLD12 1%, IEIK13 1%, PuraMatrix 1% and 2.5%
Protocol: Based on the visual observation of the effect of pH level on the properties of the peptide solutions, the effect on the rheological properties of the peptide solutions after adjusting their pH level to 3.4 (PuraMatrix® (SEQ ID NO:1) and KLD12 (SEQ ID NO:3)) or 3.7 (IEIK13 (SEQ ID NO:2)) was evaluated. If the pH levels of peptide solutions are higher than 3.5 (PuraMatrix® (SEQ ID NO:1) and KLD12 (SEQ ID NO:3)) or 3.7 (IEIK13 (SEQ ID NO:2)), the peptide solution began phase separation becoming cloudy. The rheological properties of PuraMatrix® (SEQ ID NO:1), KLD12 (SEQ ID NO:3) and IEIK13 (SEQ ID NO:2) solutions were higher at pH 3.4. The results are shown in FIG. 2 for KLD12 (SEQ ID NO:3) 1%, FIG. 3 for IEIK13 (SEQ ID NO:2) 1%, and FIGS. 4-5 for PuraMatrix® (SEQ ID NO:1) 1% and 2.5%, respectively. Stress sweep tests were performed at 10 rad/s. Frequency sweep tests were performed at 1 Pa.
Based on the results of the effect on the rheological properties of the peptide solutions after adjusting their pH level to 3.4 (PuraMatrix® (SEQ ID NO:1) and KLD12 (SEQ ID NO:3)) or 3.7 (IEIK13 (SEQ ID NO:2)), the effect on the rheological properties of the peptide solutions at various pH levels was evaluated. […] The rheological properties of peptides were evaluated at various concentrations using a rheometer (DHR-1, TA Instruments) with 20 mm plates. The results are shown in FIG. 6A for PuraMatrix® (SEQ ID NO:1) 2.5% solution and FIG. 6B for IEIK13 (SEQ ID NO:2) 1.5% solution, respectively. Frequency sweep tests were performed from 1 rad/sec to 10 rad/sec at 1 Pa and the storage modulus at 1 rad/sec was selected for data.

Arg-Ala-Asp-Ala-Arg-Ala-Asp-Ala-Arg-Ala-Asp-Ala-Arg-Ala-Asp-Ala [PuraMatrix ®]
gelation after saline buffer treatment [1]: no or negligible gelation
critical salt ionic strengths at which peptides become cloudy [2]: 0.9˜1.2 M
Appearance ([2]; CaCl2 0 M, ionic strength 0 M, conc. 1.5%): Clear, thick gel
Appearance ([2]; CaCl2 0.05 M, ionic strength 0.15 M, conc. 1.48%): Clear, thick, stiffer gel
Appearance ([2]; CaCl2 0.1 M, ionic strength 0.3 M, conc. 1.45%): Clear, thick, stiffer gel
Appearance ([2]; CaCl2 0.15 M, ionic strength 0.45 M, conc. 1.43%): Clear, thick, stiffer gel
Appearance ([2]; CaCl2 0.2 M, ionic strength 0.6 M, conc. 1.4%): Clear, thick, stiffer gel
Appearance ([2]; CaCl2 0.25 M, ionic strength 0.75 M, conc. 1.38%): Clear, thick, stiffer gel
Appearance ([2]; CaCl2 0.3 M, ionic strength 0.9 M, conc. 1.35%): Clear, thick, stiffer gel
Appearance ([2]; CaCl2 0.35 M, ionic strength 1.05 M, conc. 1.32%): Clear, thick, stiffer gel
Appearance ([2]; CaCl2 0.383 M, ionic strength 1.15 M, conc. 1.31%): Clear, thick, stiffer gel
Appearance ([2]; CaCl2 0.4 M, ionic strength 1.2 M, conc. 1.3%): Slightly cloudy, thick, stiffer gel
Appearance ([2]; CaCl2 0.417 M, ionic strength 1.25 M, conc. 1.29%): Slightly cloudy, brittle gel
Appearance ([2]; CaCl2 0.433 M, ionic strength 1.3 M, conc. 1.28%): Cloudy, phase-separated
Appearance ([2]; DPBS (pH 3.2) 0 M, ionic strength 0 M, conc. 1.5%): Clear, thick gel
Appearance ([2]; DPBS (pH 3.2) 0.15 M, ionic strength 0.15 M, conc. 1.35%): Clear, thick, stiffer gel
Appearance ([2]; DPBS (pH 3.2) 0.3 M, ionic strength 0.3 M, conc. 1.2%): Clear, thick, stiffer gel
Appearance ([2]; DPBS (pH 3.2) 0.45 M, ionic strength 0.45 M, conc. 1.05%): Clear, thick, stiffer gel
Appearance ([2]; DPBS (pH 3.2) 0.6 M, ionic strength 0.6 M, conc. 0.9%): Clear, thick, stiffer gel
Appearance ([2]; DPBS (pH 3.2) 0.75 M, ionic strength 0.75 M, conc. 0.75%): Clear, thick, stiffer gel
Appearance ([2]; DPBS (pH 3.2) 0.9 M, ionic strength 0.9 M, conc. 0.6%): Clear, thick, stiffer gel
Appearance ([2]; DPBS (pH 3.2) 0.95 M, ionic strength 0.95 M, conc. 0.55%): Slightly cloudy, brittle gel
Appearance ([2]; DPBS (pH 3.2) 1.0 M, ionic strength 1.0 M, conc. 0.5%): Cloudy, phase-separated
Appearance ([2]; KCl 0 M, ionic strength 0 M, conc. 1.5%): Clear, thick gel
Appearance ([2]; KCl 0.15 M, ionic strength 0.15 M, conc. 1.43%): Clear, thick, stiffer gel
Appearance ([2]; KCl 0.3 M, ionic strength 0.3 M, conc. 1.35%): Clear, thick, stiffer gel
Appearance ([2]; KCl 0.45 M, ionic strength 0.45 M, conc. 1.27%): Clear, thick, stiffer gel
Appearance ([2]; KCl 0.6 M, ionic strength 0.6 M, conc. 1.2%): Clear, thick, stiffer gel
Appearance ([2]; KCl 0.75 M, ionic strength 0.75 M, conc. 1.13%): Clear, thick, stiffer gel
Appearance ([2]; KCl 0.9 M, ionic strength 0.9 M, conc. 1.05%): Clear, thick, stiffer gel
Appearance ([2]; KCl 0.95 M, ionic strength 0.95 M, conc. 1.03%): Clear, thick, stiffer gel
Appearance ([2]; KCl 1.0 M, ionic strength 1.0 M, conc. 1.0%): Clear, thick, stiffer gel
Appearance ([2]; KCl 1.05 M, ionic strength 1.05 M, conc. 0.98%): Slightly cloudy, thick, stiffer gel
Appearance ([2]; KCl 1.1 M, ionic strength 1.1 M, conc. 0.95%): Slightly cloudy, brittle gel
Appearance ([2]; KCl 1.15 M, ionic strength 1.15 M, conc. 0.93%): Cloudy, phase-separated
Appearance ([2]; MgCl2 0 M, ionic strength 0 M, conc. 1.5%): Clear, thick gel
Appearance ([2]; MgCl2 0.05 M, ionic strength 0.15 M, conc. 1.48%): Clear, thick, stiffer gel
Appearance ([2]; MgCl2 0.1 M, ionic strength 0.3 M, conc. 1.45%): Clear, thick, stiffer gel
Appearance ([2]; MgCl2 0.15 M, ionic strength 0.45 M, conc. 1.43%): Clear, thick, stiffer gel
Appearance ([2]; MgCl2 0.2 M, ionic strength 0.6 M, conc. 1.4%): Clear, thick, stiffer gel
Appearance ([2]; MgCl2 0.25 M, ionic strength 0.75 M, conc. 1.38%): Clear, thick, stiffer gel
Appearance ([2]; MgCl2 0.3 M, ionic strength 0.9 M, conc. 1.35%): Clear, thick, stiffer gel
Appearance ([2]; MgCl2 0.35 M, ionic strength 1.05 M, conc. 1.32%): Clear, thick, stiffer gel
Appearance ([2]; MgCl2 0.383 M, ionic strength 1.15 M, conc. 1.31%): Clear, thick, stiffer gel
Appearance ([2]; MgCl2 0.4 M, ionic strength 1.2 M, conc. 1.3%): Slightly cloudy, thick, stiffer gel
Appearance ([2]; MgCl2 0.417 M, ionic strength 1.25 M, conc. 1.29%): Slightly cloudy, brittle gel
Appearance ([2]; MgCl2 0.433 M, ionic strength 1.3 M, conc. 1.28%): Cloudy, phase-separated
Appearance ([2]; NaCl 0 M, ionic strength 0 M, conc. 1.5%): Clear, thick gel
Appearance ([2]; NaCl 0.15 M, ionic strength 0.15 M, conc. 1.43%): Clear, thick, stiffer gel
Appearance ([2]; NaCl 0.3 M, ionic strength 0.3 M, conc. 1.35%): Clear, thick, stiffer gel
Appearance ([2]; NaCl 0.45 M, ionic strength 0.45 M, conc. 1.27%): Clear, thick, stiffer gel
Appearance ([2]; NaCl 0.6 M, ionic strength 0.6 M, conc. 1.2%): Clear, thick, stiffer gel
Appearance ([2]; NaCl 0.75 M, ionic strength 0.75 M, conc. 1.13%): Clear, thick, stiffer gel
Appearance ([2]; NaCl 0.8 M, ionic strength 0.8 M, conc. 1.10%): Clear, thick, stiffer gel
Appearance ([2]; NaCl 0.85 M, ionic strength 0.85 M, conc. 1.08%): Clear, thick, stiffer gel
Appearance ([2]; NaCl 0.9 M, ionic strength 0.9 M, conc. 1.05%): Slightly cloudy, brittle gel
Appearance ([2]; NaCl 0.95 M, ionic strength 0.95 M, conc. 1.03%): Cloudy, phase-separated
Appearance ([2]; NaCl 1.0 M, ionic strength 1.0 M, conc. 1.0%): Cloudy, phase-separated
salt ionic strength increase that did not change the clear color, while apparent stiffness increased ([2]; depending on different salts, 1.5% peptide solutions): 0.85˜1.15 M
rheological properties of solutions at pH 3.4 [3]: higher
